Like-named read-outs stand apart in the source and are kept apart here.
Key:
Experiment in all cases: cross-linking + co-IP
[1] = biological target: Vps35p (S. cerevisiae (endogenous in strain AHY63)) (UniProt P34110)
A-ALP (S. cerevisiae) [2] = biological target: A-ALP (S. cerevisiae)
A-ALP (S. cerevisiae) [3] = biological target: A-ALP (S. cerevisiae); remark: listed apart in the source
A-ALP (S. cerevisiae) [4] = biological target: A-ALP (S. cerevisiae); remark: listed apart in the source

Q: For A-ALP, which percent of A-ALP immunoprecipitated by anti-Vps35p after cross-linking [1] is on record?
A: The percent of A-ALP immunoprecipitated by anti-Vps35p after cross-linking was 5%.

B1: Vps35p (natural protein)
chain: MAYADSPENAIAVIKQRTALMNRCLSQHKLMESLQHTSIMLTELRNPNLSPKKYYELYVIIFDSLTNLSTYLIENHPQNHHLADLYELVQYTGNVVPRLYLMITVGTSYLTFNEAPKKEILKDMIEMCRGVQNPIRGLFLRYYLSQRTKELLPEDDPSFNSQFIMNNFIEMNKLWVRLQHQGPLRERETRTRERKELQILVGSQLVRLSQIIDDNFQMYKQDILPTILEQVIQCRDLVSQEYLLDVICQVFADEFHLKTLDTLLQTTLHLNPDVSINKIVLTLVDRLNDYVTRQLEDDPNATSTNAYLDMDVFGTFWDYLTVLNHERPDLSLQQFIPLVESVIVLSLKWYPNNFDNLNKLFELVLQKTKDYGQKNISLESEHLFLVLLSFQNSKLQLTSSTTAPPNSPVTSKKHFIFQLISQCQAYKNILALQSISLQKKVVNEIIDILMDREVEEMADNDSESKLHPPGHSAYLVIEDKLQVQRLLSICEPLIISRSGPPANVASSDTNVDEVFFNRHDEEESWILDPIQEKLAHLIHWIMNTTSRKQTMKNKIQFSLEAQLEILLLIKSSFIKGGINVKYTFPAIITNFWKLMRKCRMIQEYLLKKRPDNKTLLSHYSNLLKQMFKFVSRCINDIFNSCNNSCTDLILKLNLQCAILADQLQLNEISYDFFSQAFTIFEESLSDSKTQLQALIYIAQSLQKTRSLYKEAYYDSLIVRCTLHGSKLLKKQDQCRAVYLCSHLWWATEISNIGEEEGITDNFYRDGKRVLECLQRSLRVADSIMDNEQSCELMVEILNRCLYYFIHGDESETHISIKYINGLIELIKTNLKSLKLEDNSASMITNSISDLHITGENNVKASSNADDGSVITDKESNVAIGSDGTYIQLNTLNGSSTLIRGVVATASGSKLLHQLKYIPIHHFRRTCEYIESQREVDDRFKVIYV
Q: Which percent of total Vps35p cross-linked (A-ALP (S. cerevisiae) [2]) does the source give for B1 here?
A: Its percent of total Vps35p cross-linked is 10%.

Q: What about the percent of total Vps35p cross-linked (A-ALP (S. cerevisiae) [3]) of the same molecule?
A: Its percent of total Vps35p cross-linked is 16%.

Q: And the percent of total Vps35p cross-linked (A-ALP (S. cerevisiae) [4])?
A: Its percent of total Vps35p cross-linked is 26%.

Reference: publication PMC2192648
